# PMC6061855 (Nucleic Acids Research, 2018)
# B1: Full-length E. coli RppH (RNA pyrophosphohydrolase) (enzyme, UniProt P0A776 1-176, looked up)
# chain: MIDDDGYRPNVGIVICNRQGQVMWARRFGQHSWQFPQGGINPGESAEQAMYRELFEEVGLSRKDVRILASTRNWLRYKLPKRLVRWDTKPVCIGQKQKWFLLQLVSGDAEINMQTSSTPEFDGWRWVSYWYPVRQVVSFKRDVYRRVMKEFASVVMSLQENTPKPQNASAYRRKRG
# B2: ppcpAGU (ssRNA)
# RNA: AGU
# modifications: 5' triphosphate analog ppcpA (non-natural bridging group, from ppcpA starter nucleotide)
# B3: DapFm (E. coli DapF with Y268A and R36A mutations) (enzyme)
# chain: SGSGSGMQFSKMHGLGNDFMVVDAVTQNVFFSPELIRRLADAHLGVGFDQLLVVEPPYDPELDFHYRIFNADGSEVAQCGNGARCFARFVRLKGLTNKRDIRVSTANGRMVLTVTDDDLVRVNMGEPNFEPSAVPFRANKAEKTYIMRAAEQTILCGVVSMGNPHCVIQVDDVDTAAVETLGPVLESHERFPERANIGFMQVVKREHIRLRVYERGAGETQACGSGACAAVAVGIQQGLLAEEVRVELPGGRLDIAWKGPGHPLYMTGPAVHVADGFIHL
# B4: E. coli DapF (diaminopimelate epimerase) bearing six additional residues (SGSGSG) at the amino terminus (enzyme)
# chain: SGSGSGMQFSKMHGLGNDFMVVDAVTQNVFFSPELIRRLADRHLGVGFDQLLVVEPPYDPELDFHYRIFNADGSEVAQCGNGARCFARFVRLKGLTNKRDIRVSTANGRMVLTVTDDDLVRVNMGEPNFEPSAVPFRANKAEKTYIMRAAEQTILCGVVSMGNPHCVIQVDDVDTAAVETLGPVLESHERFPERANIGFMQVVKREHIRLRVYERGAGETQACGSGACAAVAVGIQQGLLAEEVRVELPGGRLDIAWKGPGHPLYMTGPAVHVYDGFIHL
# B5: DapF V19S-F58S (E. coli DapF double mutant) (enzyme)
# chain: SGSGSGMQFSKMHGLGNDFMVVDASTQNVFFSPELIRRLADRHLGVGFDQLLVVEPPYDPELDSHYRIFNADGSEVAQCGNGARCFARFVRLKGLTNKRDIRVSTANGRMVLTVTDDDLVRVNMGEPNFEPSAVPFRANKAEKTYIMRAAEQTILCGVVSMGNPHCVIQVDDVDTAAVETLGPVLESHERFPERANIGFMQVVKREHIRLRVYERGAGETQACGSGACAAVAVGIQQGLLAEEVRVELPGGRLDIAWKGPGHPLYMTGPAVHVYDGFIHL
# B6: DapF F58S-L89S (E. coli DapF double mutant) (enzyme)
# chain: SGSGSGMQFSKMHGLGNDFMVVDAVTQNVFFSPELIRRLADRHLGVGFDQLLVVEPPYDPELDSHYRIFNADGSEVAQCGNGARCFARFVRLKGSTNKRDIRVSTANGRMVLTVTDDDLVRVNMGEPNFEPSAVPFRANKAEKTYIMRAAEQTILCGVVSMGNPHCVIQVDDVDTAAVETLGPVLESHERFPERANIGFMQVVKREHIRLRVYERGAGETQACGSGACAAVAVGIQQGLLAEEVRVELPGGRLDIAWKGPGHPLYMTGPAVHVYDGFIHL
# B7: DapF^V19S,F58S,L89S (E. coli DapF triple mutant) (enzyme)
# chain: SGSGSGMQFSKMHGLGNDFMVVDASTQNVFFSPELIRRLADRHLGVGFDQLLVVEPPYDPELDSHYRIFNADGSEVAQCGNGARCFARFVRLKGSTNKRDIRVSTANGRMVLTVTDDDLVRVNMGEPNFEPSAVPFRANKAEKTYIMRAAEQTILCGVVSMGNPHCVIQVDDVDTAAVETLGPVLESHERFPERANIGFMQVVKREHIRLRVYERGAGETQACGSGACAAVAVGIQQGLLAEEVRVELPGGRLDIAWKGPGHPLYMTGPAVHVYDGFIHL
# B8: DapF V19S-L89S (E. coli DapF double mutant) (enzyme)
# chain: SGSGSGMQFSKMHGLGNDFMVVDASTQNVFFSPELIRRLADRHLGVGFDQLLVVEPPYDPELDFHYRIFNADGSEVAQCGNGARCFARFVRLKGSTNKRDIRVSTANGRMVLTVTDDDLVRVNMGEPNFEPSAVPFRANKAEKTYIMRAAEQTILCGVVSMGNPHCVIQVDDVDTAAVETLGPVLESHERFPERANIGFMQVVKREHIRLRVYERGAGETQACGSGACAAVAVGIQQGLLAEEVRVELPGGRLDIAWKGPGHPLYMTGPAVHVYDGFIHL
# Columns and labels:
# [1] = target: His6-SUMO-DapF (E. coli DapF with uncleaved N-terminal hexahistidine and SUMO tags) (E. coli) (UniProt P0A6K1); experiment: BLI
# [2] = target: T1, DapFm (E. coli DapF with Y268A and R36A mutations) (E. coli, UniProt P0A6K1 1-274, Y268A | R36A)
# T1 sequence: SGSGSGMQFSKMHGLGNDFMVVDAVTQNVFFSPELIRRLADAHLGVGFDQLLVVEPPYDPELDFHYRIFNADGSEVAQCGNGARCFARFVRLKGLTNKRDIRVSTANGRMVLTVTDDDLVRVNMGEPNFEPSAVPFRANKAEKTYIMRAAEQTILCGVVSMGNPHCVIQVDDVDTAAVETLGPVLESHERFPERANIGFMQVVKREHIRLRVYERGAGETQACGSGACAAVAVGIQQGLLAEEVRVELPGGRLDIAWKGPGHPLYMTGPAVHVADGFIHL
# [3] = target: T2, His6-SUMO-DapF (E. coli DapF with uncleaved N-terminal hexahistidine and SUMO tags) (E. coli, UniProt P0A6K1 1-274); experiment: cross-linking
# T2 sequence: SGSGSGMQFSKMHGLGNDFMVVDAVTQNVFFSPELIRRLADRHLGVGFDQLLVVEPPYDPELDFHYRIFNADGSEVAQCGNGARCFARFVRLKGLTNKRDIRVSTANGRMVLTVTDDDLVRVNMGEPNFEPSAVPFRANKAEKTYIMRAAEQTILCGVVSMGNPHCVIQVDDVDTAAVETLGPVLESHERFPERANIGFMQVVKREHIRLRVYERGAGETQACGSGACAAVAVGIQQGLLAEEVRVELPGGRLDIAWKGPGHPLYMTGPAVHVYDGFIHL
# [4] = target: T1, DapFm (E. coli DapF with Y268A and R36A …); experiment: BLI
# [5] = target: T3, RppHt;DapFm (Escherichia coli;Escherichia coli, UniProt P0A776;P0A6K1 1-158;1-274, |R36A;Y268A); experiment: X-ray crystallography
# T3 sequence 1: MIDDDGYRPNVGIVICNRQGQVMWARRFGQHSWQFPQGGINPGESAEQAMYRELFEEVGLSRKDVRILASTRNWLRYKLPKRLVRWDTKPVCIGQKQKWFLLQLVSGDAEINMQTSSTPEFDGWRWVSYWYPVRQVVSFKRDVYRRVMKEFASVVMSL
# T3 sequence 2: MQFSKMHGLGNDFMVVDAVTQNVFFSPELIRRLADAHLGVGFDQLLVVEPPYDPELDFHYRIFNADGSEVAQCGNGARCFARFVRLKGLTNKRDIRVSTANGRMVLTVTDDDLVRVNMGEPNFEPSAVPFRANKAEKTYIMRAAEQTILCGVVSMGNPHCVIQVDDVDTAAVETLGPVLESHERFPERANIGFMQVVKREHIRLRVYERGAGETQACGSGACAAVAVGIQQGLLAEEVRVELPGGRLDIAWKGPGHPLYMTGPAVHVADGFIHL
# [6] = target: EcRppH(1–158)AA, truncated variant of E. coli RppH (E. coli) (UniProt P0A776); experiment: BLI
# [7] = target: T4, RppH^R134A (E. coli RppH mutant), His6-SUMO-tagged (E. coli, UniProt P0A776 1-176, R134A); experiment: BLI
# T4 sequence (looked up): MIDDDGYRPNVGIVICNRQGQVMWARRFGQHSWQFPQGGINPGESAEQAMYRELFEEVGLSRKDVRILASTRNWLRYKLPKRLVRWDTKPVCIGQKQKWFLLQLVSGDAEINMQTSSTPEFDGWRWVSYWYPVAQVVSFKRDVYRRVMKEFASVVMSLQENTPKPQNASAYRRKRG
# [8] = target: B1; experiment: BLI
# [9] = target: T5, His6-SUMO-tagged E. coli RppH (E. coli, UniProt P0A776 1-176); experiment: BLI
# T5 sequence (looked up): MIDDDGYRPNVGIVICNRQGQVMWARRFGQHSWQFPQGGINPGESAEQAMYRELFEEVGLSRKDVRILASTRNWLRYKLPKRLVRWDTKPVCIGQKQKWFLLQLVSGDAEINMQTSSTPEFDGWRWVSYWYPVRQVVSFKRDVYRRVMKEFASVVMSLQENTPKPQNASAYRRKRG
molecule,measurement,setting,value
"RppH^W130A,R145A (E. coli RppH double mutant) (from UniProt P0A776 1-176) (enzyme)",Kd,[1],1900 nM
B1,stoichiometry N,[2],1 RppH per DapFm (printed as 1:1)
same,stoichiometry N,[3],1 RppH per DapF (printed as 2:2)
same,Kd,[4],7.5 nM
B2,binding result,[5],binds
B3,Kd,[6],6 nM
B4,fold reduction of the binding affinity against wild-type RppH,[7],2 fold
B5,fold reduction of the binding affinity against wild-type DapF,[8],59 fold
B6,fold reduction of the binding affinity against wild-type DapF,[8],290 fold
B7,fold decrease of binding against wild-type DapF,[9],~5800 fold
B8,fold reduction of the binding affinity against wild-type DapF,[8],77 fold
